Experimental data taken from publication PMC5079111 (Cell, 2016).

Biological target: His-NPM1 (human, UniProt P06748 1-294)
Experiment: pull-down

His-NPM1, sequence (P06748 whole entry): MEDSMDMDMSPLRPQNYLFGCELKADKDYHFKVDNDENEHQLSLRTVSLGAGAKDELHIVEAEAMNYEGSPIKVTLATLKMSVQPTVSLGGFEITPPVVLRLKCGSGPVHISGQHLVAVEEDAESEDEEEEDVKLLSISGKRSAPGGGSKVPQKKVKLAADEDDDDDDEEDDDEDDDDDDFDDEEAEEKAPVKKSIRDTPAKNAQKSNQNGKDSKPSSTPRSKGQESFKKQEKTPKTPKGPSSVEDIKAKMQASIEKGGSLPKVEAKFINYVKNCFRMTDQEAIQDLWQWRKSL

| binding result | Binder |
| --- | --- |
| binds | GRGRGRGRGRGRGRGRGRGRGRGRGRGRGRGRGRGRGRGR [GR20-FLAG peptide] |
| binds | PRPRPRPRPRPRPRPRPRPRPRPRPRPRPRPRPRPRPRPR [PR20-FLAG peptide] |
